According to the supplement of paper PMC7877785:
± gives the uncertainty stated by the source.

Experiment: self-splicing fitness, log relative to wild type (ln ratio); higher = more splicing; Tetrahymena group I intron in knt gene, E. coli kanamycin selection, DiMSum; sequences stand for … in CUCUCU…GGAGGGAAAAGUUAUCAGGCAUGCACCUGGUAGCUAGUCUUUAAACCAAUAGAUUGCAUCGGUUUAAAAGGCAAGACCGUCAAAUUGCGGGAAAGGGGUCAACAGCCGUUCAGUACCAAGUCUCAGGGGAAACUUUGAGAUGGCCUUGCAAAGGGUAUGGUAAUAAGCUGACGGACAUGGUCCUAACCACGCAGCCAAGUCCUAAGUCAACAGAUCUUCUGUUGAUAUGGAUGCAGUUCACAGACUAAAUGUCGGUCGGGGAAGAUGUAUUCUUCUCAUAAGAUAUAGUCGGACCUCUCCUUAAUGGGAGCUAGCGGAUGAAGUGAUGCAACACUGGAGCCGCUGGGAACUAAUUUGUAUGCGAAAGUAUAUUGAUUAGUUUUGGAGUACUCGUGGUCG
Procedure, shortened: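 Six replicate transformations of E. coli BL21(DE3) with a pET-22b(+) library were grown overnight at 37°C or 30°C. The library randomised all eight P1ex-region intron nucleotides, the intron lying in the knt kanamycin-resistance gene, and plates were LB agar with or without 25 μg/mL kanamycin plus 100 μg/mL carbenicillin, 50 μM IPTG and 0.2% rhamnose. Pooled colonies were amplicon-sequenced on an Illumina HiSeq 2500, and fitness is the DiMSum error-weighted combination of wild-type-normalised replicate fold changes, kanamycin versus none.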

| Sequence | self-splicing fitness (ln) (30 °C) | self-splicing fitness (ln) (37 °C) |
| --- | --- | --- |
| UUCCAGCAAUAUUACGUUUC | -3.24 ± 0.23 | -2.17 ± 0.21 |
| UUCGAGCAAUAUUACGAAGG | -2.09 ± 0.23 | -1.62 ± 0.27 |
| UUCGAGCAAUAUUACGAAUA | – | -1.26 ± 0.3 |
| UUCGAGCAAUAUUACGACGU | -3.55 ± 0.24 | -1.85 ± 0.14 |
| UUCGAGCAAUAUUACGACUU | -3.32 ± 0.29 | -1.49 ± 0.29 |
| UUCGAGCAAUAUUACGAGAA | – | -0.969 ± 0.32 |
| UUCGAGCAAUAUUACGAGGC | -2.45 ± 0.29 | -2.98 ± 0.3 |
| UUCGAGCAAUAUUACGAUCU | -2.66 ± 0.19 | -1.83 ± 0.23 |
| UUCGAGCAAUAUUACGAUUA | -1.39 ± 0.26 | -0.875 ± 0.25 |
| UUCGAGCAAUAUUACGCACU | – | -1.76 ± 0.38 |
| UUCGAGCAAUAUUACGCAUA | -3.18 ± 0.42 | -1.39 ± 0.26 |
| UUCGAGCAAUAUUACGCGGG | -3.26 ± 0.43 | -2.07 ± 0.32 |
| UUCGAGCAAUAUUACGCUUU | -3.89 ± 0.26 | -2.56 ± 0.21 |
| UUCGAGCAAUAUUACGGUGA | -1.33 ± 0.1 | -0.708 ± 0.11 |
| UUCGAGCAAUAUUACGGUGC | -3.24 ± 0.31 | -2.29 ± 0.29 |
| UUCGAGCAAUAUUACGUAUU | – | -2.79 ± 0.43 |
| UUCGAGCAAUAUUACGUCCG | -3.05 ± 0.24 | -1.24 ± 0.28 |
| UUCGAGCAAUAUUACGUCGA | – | -1.49 ± 0.19 |
| UUCGAGCAAUAUUACGUGAU | -1.8 ± 0.2 | -1.35 ± 0.21 |
| UUCGAGCAAUAUUACGUGCU | -2.02 ± 0.18 | – |
| UUCGAGCAAUAUUACGUGUC | -3.11 ± 0.23 | -2.77 ± 0.34 |
| UUCGAGCAAUAUUACGUUAA | -2.16 ± 0.31 | -1.82 ± 0.21 |
| UUCUAGCAAUAUUACGAAAU | -2.85 ± 0.28 | -1.75 ± 0.32 |
| UUCUAGCAAUAUUACGACAC | -2.05 ± 0.27 | -1.71 ± 0.28 |
| UUCUAGCAAUAUUACGAGAG | -2.3 ± 0.22 | -2.4 ± 0.29 |
| UUCUAGCAAUAUUACGAGGU | -3.27 ± 0.31 | -1.53 ± 0.2 |

| Sequence | self-splicing fitness (ln) (30 °C) | self-splicing fitness (ln) (37 °C) |
| --- | --- | --- |
| UUCUAGCAAUAUUACGAUCC | – | -2.65 ± 0.38 |
| UUCUAGCAAUAUUACGCAAA | -0.225 ± 0.3 | -1.23 ± 0.27 |
| UUCUAGCAAUAUUACGCACG | -1.26 ± 0.26 | -0.399 ± 0.3 |
| UUCUAGCAAUAUUACGCCAC | – | -2.02 ± 0.46 |
| UUCUAGCAAUAUUACGCCAU | -2.66 ± 0.32 | – |
| UUCUAGCAAUAUUACGCCCA | -1.55 ± 0.16 | -1.37 ± 0.14 |
| UUCUAGCAAUAUUACGCCCU | -2.51 ± 0.27 | -0.693 ± 0.19 |
| UUCUAGCAAUAUUACGCGGA | -3.93 ± 0.3 | -3.75 ± 0.33 |
| UUCUAGCAAUAUUACGGGCU | -3.73 ± 0.36 | -3.76 ± 0.36 |
| UUCUAGCAAUAUUACGGGGG | -3.75 ± 0.37 | -2.09 ± 0.22 |
| UUCUAGCAAUAUUACGGGGU | -3.67 ± 0.33 | -1.92 ± 0.24 |
| UUCUAGCAAUAUUACGGUAA | -1.17 ± 0.13 | -0.408 ± 0.085 |
| UUCUAGCAAUAUUACGGUAU | – | -0.561 ± 0.24 |
| UUCUAGCAAUAUUACGGUCA | -0.883 ± 0.15 | -0.729 ± 0.11 |
| UUCUAGCAAUAUUACGUAAG | -2.51 ± 0.15 | -0.938 ± 0.15 |
| UUCUAGCAAUAUUACGUAGC | – | -2.19 ± 0.31 |
| UUCUAGCAAUAUUACGUCAA | -1.21 ± 0.13 | -1.43 ± 0.16 |
| UUCUAGCAAUAUUACGUGCA | -1.23 ± 0.13 | -1.59 ± 0.16 |
| UUCUAGCAAUAUUACGUGGG | -3.08 ± 0.16 | -2.39 ± 0.15 |
| UUCUAGCAAUAUUACGUUUU | -3.83 ± 0.23 | -2.92 ± 0.18 |
| UUGAAGCAAUAUUACGAAAG | -1.47 ± 0.082 | -0.794 ± 0.1 |
| UUGAAGCAAUAUUACGAACC | -1.68 ± 0.24 | -1.77 ± 0.44 |
| UUGAAGCAAUAUUACGAACG | 0.338 ± 0.093 | 0.443 ± 0.12 |
| UUGAAGCAAUAUUACGACAC | -1.07 ± 0.13 | -0.278 ± 0.2 |
| UUGAAGCAAUAUUACGACGU | 0.216 ± 0.046 | 0.439 ± 0.06 |
| UUGAAGCAAUAUUACGAGCC | -2.69 ± 0.48 | -1.56 ± 0.49 |
